Here are results for two molecules from patent US12006519B2, “Polymerase mutants and use with 3′-OH unblocked reversible terminators” (Agilent Technologies, Inc., priority 2021, dated 2024).

What all share (format): biochemical
The subject of one assay is LTC. Description: Plate-based assay with immobilized primer-templates, incorporation of LTC. The note with it: FIG. 6. How it is done: (§1) In this example, additional mutant polymerases were derived from Pfu polymerase. To generate the mutants, eighty-seven codons in the Pfu pol B gene were saturated using the QuikChange Lightning Mutagenesis kit and oligonucleotides containing “NDT” codons to create R, N, D, C, G, H, I, L, F, S, Y, and V substitutions with equal frequency. In some cases, mutants missing from NDT libraries were prepared in a separate QuikChange reaction with an equimolar mixture of mutagenic oligos encoding the remaining mutations (A, T, K, Q, E, P, […], W). Thirty-two clones were randomly selected from each QuikChange library (with the exception of T267, Y403, Y410, I475, G499 and K675 libraries which generated fewer transformants). Bacterial lysates were prepared and screened for incorporation of LTA and LTC using a plate-based assay with immobilized primer-templates. A limited number of mutants were also screened for utilization of LTG and LTU (similar trends; data not shown). After washing and UV cleavage (to minimize dye quenching effects), plates were read and fluorescent signals compared to Pfu controls. The following table identifies four mutant Pfu polymerases that served as controls, which were given the arbitrary names Pfu5, Pfu1, and Pfu2, along with Pfu10 (which is discussed above).

In assay [1] the test system is Lightning Terminators. Description: Sequencing-by-synthesis with Lightning Terminators (87 cycles). Also noted: ARL (87 cycles) / Lead + Lag / Leading / Lagging: unit not given here. Here is the method:
This section generally describes how the present mutant polymerases were used for sequencing-by-synthesis, and how their performance in sequencing was measured. Sequencing was performed on a breadboard instrument, essentially as described in Hertzog D, et al., “A high-performance, low-cost approach to next-generation sequencing”, BioOptics World. 2011 Issue November/December 2011.
In this example, mutations were introduced into the DNA polymerase of SEQ ID NO: 12 (Therminator) in an attempt to improve its capability in sequencing with 3′-OH unblocked terminators. Such mutations to Thermococcus sp. 9° N DNA polymerase are disclosed in U.S. Pat. Nos. 9,273,352; 9,677,059; 9,765,309; U.S. Pat. App. Publication No. 20160032377. The following table summarizes sequencing metrics with Lightning Terminators.
As used in this example and those that follow, “Lead+Lag” refers to dephasing errors in Sequencing by Synthesis technology caused by either reading the next base signal (Lead) or reading the previous base signal (Lag) relative to current base signals. Such errors may arise because of imperfect incoporation of reversible terminators by the polymerase.
In this example, mutant polymerases were created by introducing certain mutations (D141A/E143A/A485L) which are present in Therminator. The three mutations were introduced at the equivalent positions in JDF3 (Thermococcus sp. JDF3) and Pfu (Pyrococcus furisosus) DNA polymerases. The new mutant polymerases were then evaluated for their performance in sequencing with Lightning Terminators, as described above.

In assay [2] the test system is Lightning Terminators. Description: Plate-based assay, incorporation of Lightning Terminators by control extracts. The note with it: control extracts, FIG. 6, FIGS. 7A-7B. How it is done:
as §1
Selected lysates, based on screening results, were submitted for sequencing, and an amino acid identification was made based on the selections. […] As shown in Example 3, K477W benefits sequencing by increasing the fraction of full-length reads.

Assay [3] relates to Lightning Terminator-A (LTA). Description: Plate-based single-base extension assay, incorporation of LTA. From the text:
This example used saturation mutagenesis at positions 486 and 494 in Pfu D141A/E143A to create additional mutant polymerases. Bacterial extracts were screened in a plate-based single-base extension assay employing Lightning Terminator-A (LTA). Positive clones producing the highest fluorescent signals were sequenced to identify the amino acid replacement. […] Selected lysates, based on screening results, were submitted for sequencing, and an amino acid identification was made based on the selections.
FIG. 3 illustrates the saturation of position 486 in a Pfu polymerase. The QuikChange kit was used with degenerate NDT codon primers to create a library of Pfu A486 mutants. A NDT codon comprises an A, C, G, or T at the first position, an A, G, or T at the second position, and a T at the third position, thereby introducing variability into the primer. The 12 possible NDT codons represent 12 amino acids (Phe, Leu, Ile, Val, Tyr, His, Asn, Asp, Cys, Arg, Ser, and Gly). Heat-clarified extracts were prepared from 32 randomly selected colonies. Extracts were screened for incorporation of LTA in a microtiter plate assay employing an immobilized dsDNA substrate. […]
In this example, additional mutant polymerases were derived from Pfu polymerase. […] After washing and UV cleavage (to minimize dye quenching effects), plates were read and fluorescent signals compared to Pfu controls. […]

The mark [4] stands for this setting: alternative polymerases (D141A/E143A), same protein concentrations (0.02 ug/uL in cycle 1 and 0.002 ug/uL in cycles 2-n).

B1: Pfu2: Pfu DNA polymerase with D141A/E143A/A486L/Y546H (protein, UniProt P61875 1-775, looked up, variant D141A E143A A486L Y546H)
DNA polymerase: MILDVDYITEEGKPVIRLFKKENGKFKIEHDRTFRPYIYALLRDDSKIEEVKKITGERHGKIVRIVDVEKVEKKFLGKPITVWKLYLEHPQDVPTIREKVREHPAVVDIFEYDIPFAKRYLIDKGLIPMEGEEELKILAFAIATLYHEGEEFGKGPIIMISYADENEAKVITWKNIDLPYVEVVSSEREMIKRFLRIIREKDPDIIVTYNGDSFDFPYLAKRAEKLGIKLTIGRDGSEPKMQRIGDMTAVEVKGRIHFDLYHVITRTINLPTYTLEAVYEAIFGKPKEKVYADEIAKAWESGENLERVAKYSMEDAKATYELGKEFLPMEIQLSRLVGQPLWDVSRSSTGNLVEWFLLRKAYERNEVAPNKPSEEEYQRRLRESYTGGFVKEPEKGLWENIVYLDFRALYPSIIITHNVSPDTLNLEGCKNYDIAPQVGHKFCKDIPGFIPSLLGHLLEERQKIKTKMKETQDPIEKILLDYRQKLIKLLANSFYGYYGYAKARWYCKECAESVTAWGRKYIELVWKELEEKFGFKVLYIDTDGLHATIPGGESEEIKKKALEFVKYINSKLPGLLELEYEGFYKRGFFVTKKRYAVIDEEGKVITRGLEIVRRDWSEIAKETQARVLETILKHGDVEEAVRIVKEVIQKLANYEIPPEKLAIYEQITRPLHEYKAIGPHVAVAKKLAAKGVKIKPGMVIGYIVLRGDGPISNRAILAEEYDPKKHKYDAEYYIENQVLPAVLRILEGFGYRKEDLRYQKTRQVGLTSWLNIKKS
In the case of B1, in the assay with LTC, the “Incorporation of LTC (in words)” value is given as “maximize incorporation of LTC”. The “Sequencing performance with Lightning Terminators (in words)” value in the assay with Lightning Terminators [1] is listed as “nearly identical to Therminator”. Further, in the assay on Lightning Terminators [1] (setting [4]), the “% reads >85” value is recorded as 49.7%, the “ARL (87 cycles)” value was determined as 75.3 and the “Lead + Lag” value came to 1.3. Moreover, in the assay on Lightning Terminators [2], the “Utilization of Lightning Terminators (in words)” value is listed as “could utilize Lightning Terminators”.

B2: A486R: Pfu D141A/E143A with A486R (protein)
chain: MILDVDYITEEGKPVIRLFKKENGKFKIEHDRTFRPYIYALLRDDSKIEEVKKITGERHGKIVRIVDVEKVEKKFLGKPITVWKLYLEHPQDVPTIREKVREHPAVVDIFEYDIPFAKRYLIDKGLIPMEGEEELKILAFAIATLYHEGEEFGKGPIIMISYADENEAKVITWKNIDLPYVEVVSSEREMIKRFLRIIREKDPDIIVTYNGDSFDFPYLAKRAEKLGIKLTIGRDGSEPKMQRIGDMTAVEVKGRIHFDLYHVITRTINLPTYTLEAVYEAIFGKPKEKVYADEIAKAWESGENLERVAKYSMEDAKATYELGKEFLPMEIQLSRLVGQPLWDVSRSSTGNLVEWFLLRKAYERNEVAPNKPSEEEYQRRLRESYTGGFVKEPEKGLWENIVYLDFRAYYPSIIITHNVSPDTLNLEGCKNYDIAPQVGHKFCKDIPGFIPSLLGHLLEERQKIKTKMKETQDPIEWILLDYRQKRIKLLANSFYGYYGYAKARWYCKECAESVTAWGRKYIELVWKELEEKFGFKVLYIDTDGLHATIPGGESEEIKKKALEFVKYINSKLPGLLELEYEGFYKRGFFVTKKRYAVIDEEGKVITRGLEIVRRDWSEIAKETQARVLETILKHGDVEEAVRIVKEVIQKLANYEIPPEKLAIYEQITRPLHEYKAIGPHVAVAKKLAAKGVKIKPGMVIGYIVLRGDGPISNRAILAEEYDPKKHKYDAEYYIENQVLPAVLRILEGFGYRKEDLRYQKTRQVGLTSWLNIKKS
modifications: Mutant of Pyrococcus furiosus Polymerase
For the molecule B2, the “Incorporation of Lightning Terminators (in words)” value in assay [3] (Example 5, saturation mutagenesis in Pfu D141A/E143A, bacterial extracts, LTA) is listed as “improve incorporation of Lightning Terminators”. Moreover, the “Incorporation signals compared to the Pfu A486L control (Pfu10)” value in assay [3] (Example 6, LTA and/or LTC) is “superior incorporation signals”.
